± gives the standard deviation of the averaged measurements.
What was measured:
MCF7 = assay: percentage of EdU-negative (G0-arrested) nuclei per well, 72 h; higher = more G0 arrest; conditions: reference: sequence is the full UniProt precursor, the tested protein was the secreted form or ectodomain
hTERT-HMEC = assay: as above; conditions: reference: sequence is the full UniProt precursor, the tested protein was the secreted form or ectodomain
[1] = protein concentration 0.0225 µM
[2] = protein concentration 0.02025 µM
[3] = protein concentration 0.2025 µM
[4] = protein concentration 0.00725 µM
[5] = protein concentration 0.0725 µM
[6] = protein concentration 0.03054 µM
[7] = protein concentration 0.3054 µM
[8] = protein concentration 0.0215 µM
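Note: secreted proteins added to cultured cells, EdU pulse at the end, nuclei found by Hoechst imaging, EdU status from nuclear versus surrounding ring intensity ratio, PBS as neutral control.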

MALWRGSAYAGFLALAVGCVFLLEPELPGSALRSLWSSLCLGPAPAPPGPVSPEGRLAAAWDALIVRPVRRWRRVAVGVNACVDVVLSGVKLLQALGLSPGNGKDHSILHSRNDLEEAFIHFMGKGAAAERFFSDKETFHDIAQVASEFPGAQHYVGGNAALIGQKFAANSDLKVLLCGPVGPKLHELLDDNVFVPPESLQEVDEFHLILEYQAGEEWGQLKAPHANRFIFSHDLSNGAMNMLEVFVSSLEEFQPDLVVLSGLHMMEGQSKELQRKRLLEVVTSISDIPTGIPVHLELASMTNRELMSSIVHQQVFPAVTSLGLNEQELLFLTQSASGPHSSLSSWNGVPDVGMVSDILFWILKEHGRSKSRASDLTRIHFHTLVYHILATVDGHWANQLAAVAAGARVAGTQACATETIDTSRVSLRAPQEFMTSHSEAGSRIVLNPNKPVVEWHREGISFHFTPVLVCKDPIRTVGLGDAISAEGLFYSEVHPHY [Q9BRR6]
percentage of EdU-negative (MCF7; [1]): 24.8 ± 1%
percentage of EdU-negative (MCF7; protein concentration 0.225 µM): 24 ± 2.1%
percentage of EdU-negative (hTERT-HMEC; [1]): 4.76 ± 0.58%
percentage of EdU-negative (hTERT-HMEC; protein concentration 0.225 µM): 5.82 ± 0.78%

MRPLLLLALLGWLLLAEAKGDAKPEDNLLVLTVATKETEGFRRFKRSAQFFNYKIQALGLGEDWNVEKGTSAGGGQKVRLLKKALEKHADKEDLVILFADSYDVLFASGPRELLKKFRQARSQVVFSAEELIYPDRRLETKYPVVSDGKRFLGSGGFIGYAPNLSKLVAEWEGQDSDSDQLFYTKIFLDPEKREQINITLDHRCRIFQNLDGALDEVVLKFEMGHVRARNLAYDTLPVLIHGNGPTKLQLNYLGNYIPRFWTFETGCTVCDEGLRSLKGIGDEALPTVLVGVFIEQPTPFVSLFFQRLLRLHYPQKHMRLFIHNHEQHHKAQVEEFLAQHGSEYQSVKLVGPEVRMANADARNMGADLCRQDRSCTYYFSVDADVALTEPNSLRLLIQQNKNVIAPLMTRHGRLWSNFWGALSADGYYARSEDYVDIVQGRRVGVWNVPYISNIYLIKGSALRGELQSSDLFHHSKLDPDMAFCANIRQQDVFMFLTNRHTLGHLLSLDSYRTTHLHNDLWEVFSNPEDWKEKYIHQNYTKALAGKLVETPCPDVYWFPIFTEVACDELVEEMEHFGQWSLGNNKDNRIQGGYENVPTIDIHMNQIGFEREWHKFLLEYIAPMTEKLYPGYYTRAQFDLAFVVRYKPDEQPSLMPHHDASTFTINIALNRVGVDYEGGGCRFLRYNCSIRAPRKGWTLMHPGRLTHYHEGLPTTRGTRYIAVSFVDP
percentage of EdU-negative (MCF7; [2]): 27 ± 1.9%
percentage of EdU-negative (MCF7; [3]): 27.54 ± 0.046%
percentage of EdU-negative (hTERT-HMEC; [2]): 4.5 ± 0.15%
percentage of EdU-negative (hTERT-HMEC; [3]): 7.829 ± 0.054%

MRLAVLFSGALLGLLAAQGTGNDCPHKKSATLLPSFTVTPTVTESTGTTSHRTTKSHKTTTHRTTTTGTTSHGPTTATHNPTTTSHGNVTVHPTSNSTATSQGPSTATHSPATTSHGNATVHPTSNSTATSPGFTSSAHPEPPPPSPSPSPTSKETIGDYTWTNGSQPCVHLQAQIQIRVMYTTQGGGEAWGISVLNPNKTKVQGSCEGAHPHLLLSFPYGHLSFGFMQDLQQKVVYLSYMAVEYNVSFPHAAQWTFSAQNASLRDLQAPLGQSFSCSNSSIILSPAVHLDLLSLRLQAAQLPHTGVFGQSFSCPSDRSILLPLIIGLILLGLLALVLIAFCIIRRRPSAYQAL
percentage of EdU-negative (MCF7; [1]): 25.5 ± 1.1%
percentage of EdU-negative (MCF7; protein concentration 0.225 µM): 26.5 ± 0.42%
percentage of EdU-negative (hTERT-HMEC; [1]): 4.81 ± 0.13%
percentage of EdU-negative (hTERT-HMEC; protein concentration 0.225 µM): 7.36 ± 0.68%

MSPHPTALLGLVLCLAQTIHTQEEDLPRPSISAEPGTVIPLGSHVTFVCRGPVGVQTFRLERDSRSTYNDTEDVSQASPSESEARFRIDSVREGNAGLYRCIYYKPPKWSEQSDYLELLVKESSGGPDSPDTEPGSSAGPTQRPSDNSHNEHAPASQGLKAEHLYILIGVSVVFLFCLLLLVLFCLHRQNQIKQGPPRSKDEEQKPQQRPDLAVDVLERTADKATVNGLPEKDRETDTSALAAGSSQEVTYAQLDHWALTQRTARAVSPQSTKPMAESITYAAVARH [Q6GTX8]
percentage of EdU-negative (MCF7; [1]): 23.2 ± 1.6%
percentage of EdU-negative (MCF7; protein concentration 0.225 µM): 24.29 ± 0.027%
percentage of EdU-negative (hTERT-HMEC; [1]): 5.38 ± 0.85%
percentage of EdU-negative (hTERT-HMEC; protein concentration 0.225 µM): 5.62 ± 0.45%

MRPPGFRNFLLLASSLLFAGLSAVPQSFSPSLRSWPGAACRLSRAESERRCRAPGQPPGAALCHGRGRCDCGVCICHVTEPGMFFGPLCECHEWVCETYDGSTCAGHGKCDCGKCKCDQGWYGDACQYPTNCDLTKKKSNQMCKNSQDIICSNAGTCHCGRCKCDNSDGSGLVYGKFCECDDRECIDDETEEICGGHGKCYCGNCYCKAGWHGDKCEFQCDITPWESKRRCTSPDGKICSNRGTCVCGECTCHDVDPTGDWGDIHGDTCECDERDCRAVYDRYSDDFCSGHGQCNCGRCDCKAGWYGKKCEHPQSCTLSAEESIRKCQGSSDLPCSGRGKCECGKCTCYPPGDRRVYGKTCECDDRRCEDLDGVVCGGHGTCSCGRCVCERGWFGKLCQHPRKCNMTEEQSKNLCESADGILCSGKGSCHCGKCICSAEEWYISGEFCDCDDRDCDKHDGLICTGNGICSCGNCECWDGWNGNACEIWLGSEYP
percentage of EdU-negative (MCF7; [4]): 26.1 ± 1.1%
percentage of EdU-negative (MCF7; [5]): 24.7 ± 1.8%
percentage of EdU-negative (hTERT-HMEC; [4]): 4.34 ± 0.65%
percentage of EdU-negative (hTERT-HMEC; [5]): 6.33 ± 0.52%

MKATIILLLLAQVSWAGPFQQRGLFDFMLEDEASGIGPEVPDDRDFEPSLGPVCPFRCQCHLRVVQCSDLGLDKVPKDLPPDTTLLDLQNNKITEIKDGDFKNLKNLHALILVNNKISKVSPGAFTPLVKLERLYLSKNQLKELPEKMPKTLQELRAHENEITKVRKVTFNGLNQMIVIELGTNPLKSSGIENGAFQGMKKLSYIRIADTNITSIPQGLPPSLTELHLDGNKISRVDAASLKGLNNLAKLGLSFNSISAVDNGSLANTPHLRELHLDNNKLTRVPGGLAEHKYIQVVYLHNNNISVVGSSDFCPPGHNTKKASYSGVSLFSNPVQYWEIQPSTFRCVYVRSAIQLGNYK
percentage of EdU-negative (MCF7; [6]): 24 ± 3.8%
percentage of EdU-negative (MCF7; [7]): 26.5 ± 1.1%
percentage of EdU-negative (hTERT-HMEC; [6]): 5.5 ± 0.71%
percentage of EdU-negative (hTERT-HMEC; [7]): 6.07 ± 0.48%

MLALLVLVTVALASAHHGGEHFEGEKVFRVNVEDENHINIIRELASTTQIDFWKPDSVTQIKPHSTVDFRVKAEDTVTVENVLKQNELQYKVLISNLRNVVEAQFDSRVRATGHSYEKYNKWETIEAWTQQVATENPALISRSVIGTTFEGRAIYLLKVGKAGQNKPAIFMDCGFHAREWISPAFCQWFVREAVRTYGREIQVTELLDKLDFYVLPVLNIDGYIYTWTKSRFWRKTRSTHTGSSCIGTDPNRNFDAGWCEIGASRNPCDETYCGPAAESEKETKALADFIRNKLSSIKAYLTIHSYSQMMIYPYSYAYKLGENNAELNALAKATVKELASLHGTKYTYGPGATTIYPAAGGSDDWAYDQGIRYSFTFELRDTGRYGFLLPESQIRATCEETFLAIKYVASYVLEHLY
percentage of EdU-negative (MCF7; [1]): 24.5 ± 1.1%
percentage of EdU-negative (MCF7; protein concentration 0.225 µM): 25.4 ± 0.42%
percentage of EdU-negative (hTERT-HMEC; [1]): 5.24 ± 0.55%
percentage of EdU-negative (hTERT-HMEC; protein concentration 0.225 µM): 5.32 ± 0.42%

MVGKMWPVLWTLCAVRVTVDAISVETPQDVLRASQGKSVTLPCTYHTSTSSREGLIQWDKLLLTHTERVVIWPFSNKNYIHGELYKNRVSISNNAEQSDASITIDQLTMADNGTYECSVSLMSDLEGNTKSRVRLLVLVPPSKPECGIEGETIIGNNIQLTCQSKEGSPTPQYSWKRYNILNQEQPLAQPASGQPVSLKNISTDTSGYYICTSSNEEGTQFCNITVAVRSPSMNVALYVGIAVGVVAALIIIGIIIYCCCCRGKDDNTEDKEDARPNREAYEEPPEQLRELSREREEEDDYRQEEQRSTGRESPDHLDQ
percentage of EdU-negative (MCF7; [1]): 26.33 ± 0.14%
percentage of EdU-negative (MCF7; protein concentration 0.225 µM): 28.18 ± 0.27%
percentage of EdU-negative (hTERT-HMEC; [1]): 4.72 ± 0.17%
percentage of EdU-negative (hTERT-HMEC; protein concentration 0.225 µM): 5.86 ± 0.41%

MTPILTVLICLGLSLGPRTHVQAGHLPKPTLWAEPGSVITQGSPVTLRCQGGQETQEYRLYREKKTALWITRIPQELVKKGQFPIPSITWEHAGRYRCYYGSDTAGRSESSDPLELVVTGAYIKPTLSAQPSPVVNSGGNVILQCDSQVAFDGFSLCKEGEDEHPQCLNSQPHARGSSRAIFSVGPVSPSRRWWYRCYAYDSNSPYEWSLPSDLLELLVLGVSKKPSLSVQPGPIVAPEETLTLQCGSDAGYNRFVLYKDGERDFLQLAGAQPQAGLSQANFTLGPVSRSYGGQYRCYGAHNLSSEWSAPSDPLDILIAGQFYDRVSLSVQPGPTVASGENVTLLCQSQGWMQTFLLTKEGAADDPWRLRSTYQSQKYQAEFPMGPVTSAHAGTYRCYGSQSSKPYLLTHPSDPLELVVSGPSGGPSSPTTGPTSTSGPEDQPLTPTGSDPQSGLGRHLGVVIGILVAVILLLLLLLLLFLILRHRRQGKHWTSTQRKADFQHPAGAVGPEPTDRGLQWRSSPAADAQEENLYAAVKHTQPEDGVEMDTRSPHDEDPQAVTYAEVKHSRPRREMASPPSPLSGEFLDTKDRQAEEDRQMDTEAAASEAPQDVTYAQLHSLTLRREATEPPPSQEGPSPAVPSIYATLAIH [A0A0B4J1W1]
percentage of EdU-negative (MCF7; [8]): 23.2 ± 2.5%
percentage of EdU-negative (MCF7; protein concentration 0.215 µM): 25.3 ± 0.95%
percentage of EdU-negative (hTERT-HMEC; [8]): 4.85 ± 0.58%
percentage of EdU-negative (hTERT-HMEC; protein concentration 0.215 µM): 5.72 ± 0.22%

MKRLVCVLLVCSSAVAQLHKDPTLDHHWHLWKKTYGKQYKEKNEEAVRRLIWEKNLKFVMLHNLEHSMGMHSYDLGMNHLGDMTSEEVMSLMSSLRVPSQWQRNITYKSNPNRILPDSVDWREKGCVTEVKYQGSCGACWAFSAVGALEAQLKLKTGKLVSLSAQNLVDCSTEKYGNKGCNGGFMTTAFQYIIDNKGIDSDASYPYKAMDQKCQYDSKYRAATCSKYTELPYGREDVLKEAVANKGPVSVGVDARHPSFFLYRSGVYYEPSCTQNVNHGVLVVGYGDLNGKEYWLVKNSWGHNFGEEGYIRMARNKGNHCGIASFPSYPEI
percentage of EdU-negative (MCF7; [1]): 25.8 ± 0.69%
percentage of EdU-negative (MCF7; protein concentration 0.225 µM): 28.92 ± 0.25%
percentage of EdU-negative (hTERT-HMEC; [1]): 4.72 ± 0.47%
percentage of EdU-negative (hTERT-HMEC; protein concentration 0.225 µM): 9.97 ± 2.1%

Reference: the supplement of paper PMC11316812
